In US20030103978A1 (Amgen, published 2003):

How the values were obtained:
human OPGbp[143-317] [1] = biological target: T1, human OPGbp[143-317] (human, UniProt O14788 143-317); assay: cell-based or functional assay
T1 sequence (looked up): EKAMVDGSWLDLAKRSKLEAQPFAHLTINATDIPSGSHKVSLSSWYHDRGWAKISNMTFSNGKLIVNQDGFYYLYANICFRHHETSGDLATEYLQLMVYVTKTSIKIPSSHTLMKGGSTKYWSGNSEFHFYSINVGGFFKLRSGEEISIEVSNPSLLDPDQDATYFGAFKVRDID

[2] = biological target: T2, FLAG-murine OPGbp[158-316]/DE (murine, UniProt O35235 158-316); assay: EIA: plate coated with FLAG-murine OPGbp[158-316]/DE at 3 ug/ml, AT antibody in twofold steps 1.953-2000 ng/ml, goat anti-human IgG (Fc) conjugate, ABTS, absorbance at 405 nm
T2 construct: Produced in E. coli; also called FLAG-mouse OPGbp/DE; DE variant
T2 sequence: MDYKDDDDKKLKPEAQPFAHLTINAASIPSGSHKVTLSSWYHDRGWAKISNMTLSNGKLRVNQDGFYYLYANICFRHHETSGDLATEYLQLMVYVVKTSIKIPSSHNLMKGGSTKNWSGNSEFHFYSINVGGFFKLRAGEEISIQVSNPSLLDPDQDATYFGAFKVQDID
Experimental: (§1) After overnight incubation, the protein solutions were removed from the plate and 200 μl of 5% Chicken Serum (Gibco/BRL Cat# 16110-082) in PBST (PBS plus 0.05% Tween 20) was added to each well of the plate and plates were incubated at room temperature (RT) for 90 min with agitation. After incubation and blocking, plates were washed 4 times with 1×K-P wash solution in dH₂O (Cat#50-63-00, Kirkegaard & Perry Laboratories) and dried. […] Plates were incubated for three hours at room temperature with agitation, washed four times with 1×K-P wash solution and dried. Goat anti-human IgG (Fc) (Jackson ImmunoResearch, Cat# 109-036-098) was diluted 1:5000 in 5% Chicken Serum in PBST and 100 μl was added to each well. […] 100 μl of undiluted ABTS substrate (Kirkegaard & Perry; Cat# 50-66-00) was added to each well and the dish was incubated at room temperature until sufficient blue-green color developed. Color development was stopped by addition of 100 μl 1% SDS. Quantitation of color development was performed using a microtiter plate reader with detection at 405 nm.

human OPGbp[143-317] [3] = biological target: T1, human OPGbp[143-317]; assay: EIA: plate coated with human OPGbp[143-317] at 3 ug/ml, AT antibody in twofold steps 1.953-2000 ng/ml, goat anti-human IgG (Fc) conjugate, ABTS, absorbance at 405 nm
Experimental: as §1

human OPGbp[143-317] [4] = biological target: T1, human OPGbp[143-317]; assay: SPR (BIAcore), immobilized OPGbp[143-317]

B1: Fab “Y” (Fab, V domains shown)
VH: EVQLVQSGAEVRKPGASVKVSCKASGYDFSNYAIHWVRQAPGQRLEWMGWINAGNGNTKFSQKFQGRITVTRDTAASTAYMELRSLRSEDTAVYYCARDSSNMVRGIIIAYYFDYWGQGTLVTVSS
VL: EIVLTQSPATLSFSPGERATLSCRASQSVGSYLAWYQQRPGQAPRPLIYDATNRATGIPTRFSGSGSGTDFTLTISSLEPEDFATYYCQHRRTFGRGTKLEIKR
Q: With B1 as the binder, how does the “murine bone marrow assay, TRAP in solution (pNPP), IC50” value (human OPGbp[143-317] [1]) read?
A: 212 nM

B2: “AT” antibody (antibody, human IgG1, V domains shown)
VH: QVQLVQSGAEVRKPGASVKVSCKASGYDFSNYAIHWVRQAPGQRLEWMGWINAGNGNTKFSQKFQGRITVTRDTAASTAYMELRSLRSEDTAVYYCARDSSNMVRGIIIAYYFDYWGQGTLVTVSS
VL: EIVMTQSPSSLSASVGDRVTITCRASQSISRYLNWYQLKPGKAPRLLIYGASSLQSGVPSRFSGSGSGAEFTLTISSLQPEDIATYYCQHTRAFGQGTKVEIKR
notes: Full-length antibody from CHO cells: Fab “AT” heavy chain variable region joined to human IgG1 CH1, hinge, CH2 and CH3; light chain of Fab “AT” (kappa); the mature antibodies are identical; also called “AT” Ab; “AT” Nb
Q: B2 was tested. Which “EC50 (read off the curve)” value [2] did it give?
A: ~20 ng/mL

Q: And the “EC50 (read off the curve)” value (human OPGbp[143-317] [3])?
A: ~10 ng/mL

B3: “AT” Fab S96A (Fab, V domains shown)
VH: QVQLVQSGAEVRKPGASVKVSCKASGYDFSNYAIHWVRQAPGQRLEWMGWINAGNGNTKFSQKFQGRITVTRDTAASTAYMELRSLRSEDTAVYYCARDASNMVRGIIIAYYFDYWGQGTLVTVSS
VL: EIVMTQSPSSLSASVGDRVTITCRASQSISRYLNWYQLKPGKAPRLLIYGASSLQSGVPSRFSGSGSGAEFTLTISSLQPEDIATYYCQHTRAFGQGTKVEIKR
modifications: The Fab carried a 6xHis tag. Its chain and terminus are not stated, so it is left out.
notes: His-tagged Fab
Q: With B3 as the binder, how does the koff (human OPGbp[143-317] [4]) read?
A: 0.0072 s⁻¹

B4: “AT” Fab N98A (Fab, V domains shown)
VH: QVQLVQSGAEVRKPGASVKVSCKASGYDFSNYAIHWVRQAPGQRLEWMGWINAGNGNTKFSQKFQGRITVTRDTAASTAYMELRSLRSEDTAVYYCARDSSAMVRGIIIAYYFDYWGQGTLVTVSS
VL: EIVMTQSPSSLSASVGDRVTITCRASQSISRYLNWYQLKPGKAPRLLIYGASSLQSGVPSRFSGSGSGAEFTLTISSLQPEDIATYYCQHTRAFGQGTKVEIKR
modifications: The Fab carried a 6xHis tag. Its chain and terminus are not stated, so it is left out.
notes: His-tagged Fab
Q: B4 was tested. Which koff (human OPGbp[143-317] [4]) did it give?
A: 0.012 s⁻¹

B5: “AT” Fab D110A (Fab, V domains shown)
VH: QVQLVQSGAEVRKPGASVKVSCKASGYDFSNYAIHWVRQAPGQRLEWMGWINAGNGNTKFSQKFQGRITVTRDTAASTAYMELRSLRSEDTAVYYCARDSSNMVRGIIIAYYFAYWGQGTLVTVSS
VL: EIVMTQSPSSLSASVGDRVTITCRASQSISRYLNWYQLKPGKAPRLLIYGASSLQSGVPSRFSGSGSGAEFTLTISSLQPEDIATYYCQHTRAFGQGTKVEIKR
notes: His-tagged Fab
Q: Which koff (human OPGbp[143-317] [4]) does the source give for B5 here?
A: 0.127 s⁻¹

B6: “AT” Fab S97A (Fab, V domains shown)
VH: QVQLVQSGAEVRKPGASVKVSCKASGYDFSNYAIHWVRQAPGQRLEWMGWINAGNGNTKFSQKFQGRITVTRDTAASTAYMELRSLRSEDTAVYYCARDSANMVRGIIIAYYFDYWGQGTLVTVSS
VL: EIVMTQSPSSLSASVGDRVTITCRASQSISRYLNWYQLKPGKAPRLLIYGASSLQSGVPSRFSGSGSGAEFTLTISSLQPEDIATYYCQHTRAFGQGTKVEIKR
modifications: The Fab carried a 6xHis tag. Its chain and terminus are not stated, so it is left out.
notes: His-tagged Fab
Q: For B6, which koff (human OPGbp[143-317] [4]) is on record?
A: 0.0062 s⁻¹

B7: “AT” Fab Y111A (Fab, V domains shown)
VH: QVQLVQSGAEVRKPGASVKVSCKASGYDFSNYAIHWVRQAPGQRLEWMGWINAGNGNTKFSQKFQGRITVTRDTAASTAYMELRSLRSEDTAVYYCARDSSNMVRGIIIAYYFDAWGQGTLVTVSS
VL: EIVMTQSPSSLSASVGDRVTITCRASQSISRYLNWYQLKPGKAPRLLIYGASSLQSGVPSRFSGSGSGAEFTLTISSLQPEDIATYYCQHTRAFGQGTKVEIKR
notes: His-tagged Fab
Q: With B7 as the binder, how does the koff (human OPGbp[143-317] [4]) read?
A: 0.414 s⁻¹

B8: “AT” Fab D95A (Fab, V domains shown)
VH: QVQLVQSGAEVRKPGASVKVSCKASGYDFSNYAIHWVRQAPGQRLEWMGWINAGNGNTKFSQKFQGRITVTRDTAASTAYMELRSLRSEDTAVYYCARASSNMVRGIIIAYYFDYWGQGTLVTVSS
VL: EIVMTQSPSSLSASVGDRVTITCRASQSISRYLNWYQLKPGKAPRLLIYGASSLQSGVPSRFSGSGSGAEFTLTISSLQPEDIATYYCQHTRAFGQGTKVEIKR
modifications: The Fab carried a 6xHis tag. Its chain and terminus are not stated, so it is left out.
notes: His-tagged Fab
Q: Does B8 bind (human OPGbp[143-317] [4])?
A: no binding
